Results: paper PMC6527236

Columns and labels:
[1] = tested on: φ29 SSB Y57A (Bacillus subtilis phage φ29); assay: EMSA; conditions: 60 μM SSB, 10 mM Mg2+, more retarded band at the highest concentration only, EMSA: 12 mM Tris-HCl pH 7.5, 10 mM MgCl2, 1 mM DTT, 4% glycerol, 0.1 mg/ml BSA, 3 nM DNA, 15 min, 4 °C, unwinding: 50 mM Tris-HCl pH 7.5, 4% glycerol
[2] = tested on: φ29 SSB Y50A (Bacillus subtilis phage φ29); assay: EMSA; conditions: 60 μM SSB, 10 mM Mg2+, EMSA: 12 mM Tris-HCl pH 7.5, 10 mM MgCl2, 1 mM DTT, 4% glycerol, 0.1 mg/ml BSA, 3 nM DNA, 15 min, 4 °C, unwinding: 50 mM Tris-HCl pH 7.5, 4% glycerol
[3] = tested on: φ29 SSB Y57A (Bacillus subtilis phage φ29); assay: unwinding (oligonucleotide displacement gel); conditions: 80 μM SSB, no Mg2+ listed, helix destabilization, indirect binding read-out, EMSA: 12 mM Tris-HCl pH 7.5, 10 mM MgCl2, 1 mM DTT, 4% glycerol, 0.1 mg/ml BSA, 3 nM DNA, 15 min, 4 °C, unwinding: 50 mM Tris-HCl pH 7.5, 4% glycerol
[4] = tested on: φ29 SSB Y50A (Bacillus subtilis phage φ29); assay: unwinding (oligonucleotide displacement gel); conditions: 80 μM SSB, no Mg2+ listed, helix destabilization, indirect binding read-out, EMSA: 12 mM Tris-HCl pH 7.5, 10 mM MgCl2, 1 mM DTT, 4% glycerol, 0.1 mg/ml BSA, 3 nM DNA, 15 min, 4 °C, unwinding: 50 mM Tris-HCl pH 7.5, 4% glycerol

Substance | binding signal (% of wild-type binding) [1] | binding signal (% of wild-type binding) [2] | binding signal (% of wild-type 17mer displacement) [3] | binding signal (% of wild-type 17mer displacement) [4]
216mer yshC fragment, heat denatured | 17 | 96 | – | –
M13mp18 ssDNA annealed to 17mer | – | – | 17 | 97
